Biological target: Human retinol binding protein (RBP) (human, UniProt P02753 19-201)
Assay: native gel or EMSA; purified TTR (0.5 uM) incubated with human RBP (0-4 uM) at 4 °C for 2 h; free and RBP-bound TTR separated by native PAGE (10%), western blot with anti-TTR and ECL; Kd by Scatchard analysis assuming a 1:2 TTR:RBP complex; low TTR/RBP molar ratio
Conditions: both partners purified

Kd: 1420 nM
B1: Crocodylus porosus transthyretin (TTR), recombinant (natural protein)
chain: not shown
notes: Transthyretin, Crocodylus porosus, recombinant wild type; The discussion says all TTRs were secreted as a tetramer; also called C. porosus TTR; crocTTR; source: Pichia pastoris, secreted into the culture medium, purified (preparative native PAGE)

Reference: PMC5715260, “Increasing the length and hydrophobicity of the C‐terminal sequence of transthyretin strengthens its binding affinity to retinol binding protein” (FEBS Open Bio, 2017)
